Laboratory results from article PMC10397247.

T1: P9mSN
T1 chain: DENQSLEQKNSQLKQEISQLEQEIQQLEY

T2: 4H3843-bH
T2 chain: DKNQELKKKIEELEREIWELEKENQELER

T3: 4H3782-bH
T3 chain: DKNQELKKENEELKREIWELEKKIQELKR

T4: 4H4001-bH
T4 chain: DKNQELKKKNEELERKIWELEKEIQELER

T5: 4H967-bH
T5 chain: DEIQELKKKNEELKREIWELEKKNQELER

T6: 4H883-bH
T6 chain: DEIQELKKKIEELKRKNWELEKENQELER

T7: 4H607-bH
T7 chain: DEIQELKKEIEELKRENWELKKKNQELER

T8: 4H72-bH
T8 chain: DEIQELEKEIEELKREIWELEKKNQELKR

T9: 4H3606-bH
T9 chain: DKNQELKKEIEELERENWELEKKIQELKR

T10: 4H918-bH
T10 chain: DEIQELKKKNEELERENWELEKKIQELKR

T11: 4H687-bH
T11 chain: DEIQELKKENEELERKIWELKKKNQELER

T12: 4H370-bH
T12 chain: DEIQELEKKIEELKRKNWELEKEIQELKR

T13: 4H462-bH
T13 chain: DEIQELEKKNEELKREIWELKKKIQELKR

T14: 4H568-bH
T14 chain: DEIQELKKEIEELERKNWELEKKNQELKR

T15: 4H953-bH
T15 chain: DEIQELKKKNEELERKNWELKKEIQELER

T16: 4H797-bH
T16 chain: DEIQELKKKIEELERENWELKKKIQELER


Columns and labels:
Test in all cases: two-hybrid library CCNG1;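 further: natural log of median RNA to DNA barcode read ratio; higher means stronger binding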
P9mSN = target: T1, P9mSN
4H3843-bH = target: T2, 4H3843-bH
4H3782-bH = target: T3, 4H3782-bH
4H4001-bH = target: T4, 4H4001-bH
4H967-bH = target: T5, 4H967-bH
4H883-bH = target: T6, 4H883-bH
4H607-bH = target: T7, 4H607-bH
4H72-bH = target: T8, 4H72-bH
4H3606-bH = target: T9, 4H3606-bH; conditions: mean of both orientations
4H918-bH = target: T10, 4H918-bH
4H687-bH = target: T11, 4H687-bH
4H370-bH = target: T12, 4H370-bH
4H462-bH = target: T13, 4H462-bH
4H568-bH = target: T14, 4H568-bH
4H953-bH = target: T15, 4H953-bH
4H797-bH = target: T16, 4H797-bH

Binder | interaction score (P9mSN) | interaction score (4H3843-bH) | interaction score (4H3782-bH) | interaction score (4H4001-bH) | interaction score (4H967-bH) | interaction score (4H883-bH) | interaction score (4H607-bH) | interaction score (4H72-bH) | interaction score (4H3606-bH) | interaction score (4H918-bH) | interaction score (4H687-bH) | interaction score (4H370-bH) | interaction score (4H462-bH) | interaction score (4H568-bH) | interaction score (4H953-bH) | interaction score (4H797-bH)
DENQSLEQKNSQLKQEISQLEQEIQQLEY [P9mSN] | -1.56 | – | – | – | – | – | – | – | – | – | – | – | – | – | – | –
DKNQELKKEIEELERENWELEKKIQELKR [4H3606-bH] | – | 0.511 | -0.967 | 0.174 | 1.21 | 0.484 | -0.729 | -0.306 | -0.593 | -0.633 | -0.48 | 1.69 | -0.116 | 1.11 | -1.36 | -0.0905
